Measurements reported in publication doi:10.1101/2024.04.12.589225.

How the values were obtained:
[1] = target: 2nd_AtGDH-ΔT262-A263 (Aspergillus terreus); assay: crystal structure
[2] = target: 2nd_AtGDH-ΔT262-A263 (Aspergillus terreus); assay: SEC
[3] = target: 7th_AtGDH-R246S (Aspergillus terreus); assay: crystal structure
[4] = target: 7th_AtGDH-R246S (Aspergillus terreus); assay: SEC
[5] = target: 8th_AtGDH-A216Q (Aspergillus terreus); assay: SEC
[6] = target: AnGDH-Q216A (Aspergillus niger); assay: SEC
[7] = target: AnGDH-S246R (Aspergillus niger); assay: SEC
[8] = target: Aspergillus niger glutamate dehydrogenase, wild type (Aspergillus niger); assay: cryo-EM structure
[9] = target: Aspergillus terreus glutamate dehydrogenase, wild type (Aspergillus terreus); assay: crystal structure
[10] = target: Aspergillus terreus glutamate dehydrogenase, wild type (Aspergillus terreus); assay: cryo-EM structure

Q: Which stoichiometry N [1] does the source give for 2nd_AtGDH-ΔT262-A263 (enzyme) here?
A: 6

Q: And the stoichiometry N [2]?
A: 6

Q: For 7th_AtGDH-R246S (enzyme), which stoichiometry N [3] is on record?
A: 6

Q: And the stoichiometry N [4]?
A: 6

Q: How did the stoichiometry N [5] turn out when 8th_AtGDH-A216Q (enzyme) was run?
A: 6

Q: Which stoichiometry N [6] does the source give for AnGDH-Q216A (enzyme) here?
A: 6

Q: For AnGDH-S246R (enzyme), which stoichiometry N [7] is on record?
A: 6

Q: For “Aspergillus niger glutamate dehydrogenase, wild type (enzyme)”, which stoichiometry N [8] is on record?
A: 6

Q: What does the source list for “Aspergillus terreus glutamate dehydrogenase, wild type (enzyme)”?
A: stoichiometry N [9]: 6; stoichiometry N [10]: 6
